For two substances, Kd results are on record in paper PMC5627591.

What all share (experiment): BLI
On the technique in general: BLI is a label-free optical method that tracks binding on a fibre tip over time.

The target of test [1] is human IgG1 Fc-YPY variant (M252Y/V308P/N434Y) of the pH-dependent mAbs (human).
Test [2] deals with human IgG1 Fc-YEY variant (M252Y/N286E/N434Y) of the pH-dependent mAbs (human).
For test [3], the target named is human IgG1 Fc-YTE variant (M252Y/S254T/T256E) of the pH-dependent mAbs (human).
The target in test [4] is human IgG1 Fc-YPY variant (M252Y/V308P/N434Y) of the pH-dependent mAbs (human). The source holds these as a separate data set.
The target of test [5] is human IgG1 wild-type (WT) Fc variant of the pH-dependent mAbs (human).
For test [6], the target named is human IgG1 Fc-YEY variant (M252Y/N286E/N434Y) of the pH-dependent mAbs (human). The source holds these as a separate data set.
Test [7] has as its target human IgG1 Fc-YTE variant (M252Y/S254T/T256E) of the pH-dependent mAbs (human). This is another data set of the same source.
Test [8] concerns the target human IgG1 wild-type (WT) Fc variant of the pH-dependent mAbs (human). This is another data set of the same source.

Broadly, the pKd is −log10 of the Kd, conventionally taken in molar units. High values mean a small Kd, low ones a large Kd.

pKd: −log10 of the molar value. Like-named read-outs stand apart in the source and are kept apart here.

“cyno FcRn (cynomolgus monkey neonatal Fc receptor) (from UniProt Q8SPV9 24-365)”: the negative-log Kd (pKd) is 7.55 in test [1]; 7.18 in test [2]; 5.95 in test [3]; 8.66 in test [4]; 6.07 in test [5]; 8.37 in test [6]. This substance also had a pKd in test [7] of 7.12.
Take “human FcRn (human neonatal Fc receptor) (from UniProt P55899 24-365)”: the pKd was 7.85 in test [1]; less than 5.00 in test [8]; 7.66 in test [2]; 6.12 in test [3]; 8.80 in test [4]; 6.73 in test [5]. In addition, the figures for the pKd in test [6] and in test [7] were 8.51 and 7.52, respectively.
